The series in a line: label from the status in PepcDB records.
For “MPLAVLERDGSFLGVLTPHSIVEVLLERERRLLEDARKINAEIRREADKAIEQLDIKAHYDTVTGLPNRQLFCDRLLQALAAHERDGNPVVLLFLDVDNFKSINDSLGHLVGDRLLRATAERIRTAVRDGDTVARIGGDEFTILLNGAKDTLNGALVAQKILDGLAQPFVFGAQQIVISVSIGIAVSPADGETMEQLLRNADTAMYHAKSRGKNNYQFFSPELNVQAYRRQEIERNLRCALLQGELGLRYAPRVDLRSGRIVALEVCPFWLSSELGDVPPDDFIPVAEETGLIVQIGIWAFRTACAHAAVWRTQGLADRCLSFRLSQRELDDPQFGDRIMSLLDGCGLEPENLQFELSERMLMTHAAHTLAVLQELSNRGIRFSVGDFGTGNASLRRLRRFPIDELKIDLSSVRDIEPDSDDAAVITAMIAMAKSLRMDVVAVGVETPEHVAFLLERGCRHGQGRLIGARLPPERIAALLAGDAVDLFVALEHHHHHH”, the protein production result is recorded as “failed”.
Take “MPLGSSAPPRMGGHTALAAALWPRRTDGFSAWLRMAVLIAFGSVLLALSAKVNLPLPLVPMTLQTLMVVLIGAAYGARLGAATVLAYLAEGAAGLPVFAGPVGGLAPLLGPTAGYLAGFVVAAVLVGWCADRGFDRSVAKLFAAMLAGHLAILTLGFAWLAFGLHLGLAKAWWVGVVPFLAGSLVKSALGAALLPAVRRIVDRQR”: the protein production result is on record as “failed”.
With “MPLHRTPRTGPEPRTLALLAGAGLAAGAAAWAVSRSRENPVVFRPNDDAPDRVARHPEATMPTGRTVTINRPRSELFAFWRDFSNLPQFMESVEHVTVVGDVSRWTLAAPFGRKITLETRIVEEVPDRLIAWRSTDGSDVRAEGAVTFRDAPAGRGTEVEAVVAYVPAGGEAGRLIARLFRLAPAMQGRRELRRFKMLMEAGEIATSRNRKD” the entry was “failed”; with “MPLKSLKNRLNQHFDLSPRYGSVKKIMPNIVYADGFNPSVGDVVKIEKSDGSECVGMVVVAEKEQFGFTPFNFIEGARAGDKVLFLKEGLNFPVGRNLLGRVLNPLGQVIDNKGALDYERLAPVITTPIAPLKRGLIDEIFSVGVKSIDGLLTCGKGQKLGIFAGSGVGKSTLMGMITRGCLAPIKVIALIGERGREIPEFIEKNLKGDLSSCVLVVATSDDSPLMRKYGAFCAMSVAEYFKNQGLDVLFIMDSVTRFAMAQREIGLALGEPPTSKGYPPSALSLLPQLMERAGKEENKGSITAFFSVLVEGDDLSDPIADQTRSILDGHIVLSRELTDYGIYPPINILNSASRVAKDIISESQNLCARKFRRLYALLKENEMLIRIGSYQMGNDKELDEAIKKKALMEQFLAQDENALQPFETSFQQLEEILR”, “failed”.
As for “MPLLQKRVIVSNKREKVINDRRSRQQTVTPAGSEMRYEASFRPENGGLEVVFRLDAPQYHALSVGDRGMLSYKGTAFVAFTPDPLEHHHHHH”, the entry is “not failed”; as for “MPLLYILAIVVIVIILILLGIIAANYKKSGPQAALIVYGSGLGSKGVNKDSQGNRLKVVRGSGTFVLPIFQNARYLSLQSAAIDIKTEKVLSKDKIPVTVEATAMIKVGSTLQDIATAAEQFLGKRDEQRDAMADQVLRGHLRAIVGTMTVSELIEDRNKFSAEVQGQAGTDLSKMGLSIVSFVINDIRDDQNYIKALGAKEVARVQQEAAIAVANADKETRIQKAAADQDAQKAEALAATQVANAQKEKAISLAHYEQEQSIAAAEAKAQADQAQASADQAYAIQEAISKKETTEAEMQVELIKKQRETDLETQEVLRKAQENEANVVKAAEAAKAAQIAKAEADAREREVRAQAEAAAIEATAKATAKQREVTAMAEATAIEATGKAEAEAIRLKGLAEAEAIDKKAEAMQKMNDAAKLNMALEILPEVVASVSSNLQAVDSINIYGGEGSSKILGMSQESLKQGLDVLGTMGIDVPDLLNNFSSRGNSNETLEKVEKIEE”, “failed”.
As for “MPLPADPSPTLSAYAHPERLVTADWLSAHMGAPGLAIVESDEDVLLYDVGHIPGAVKIDWHTDLNDPRVRDYINGEQFAELMDRKGIARDDTVVIYGDKSNWWAAYALWVFTLFGHADVRLLNGGRDLWLAERRETTLDVPTKTCTGYPVVQRNDAPIRAFRDDVLAILGAQPLIDVRSPEEYTGKRTHMPDYPEEGALRAGHIPTAVHIPWGKAADESGRFRSREELERLYDFINPDDQTVVYCRIGERSSHTWFVLTHLLGKADVRNYDGSWTEWGNAVRVPIVAGEEPGVVPVV”, the entry is “not failed”; as for “MPLPRVSPVPLAGPGRRGEGGVSSAPLAGGPWAAGRRRLPGLLIIFRRVFTVGFWVGGVLAKKYPFLLGLDRVLELVTGFRGEAARRVLAGDEDLVGLGFRRAVAAVEGWLDYPFADTVEGEVASFYLGLAIAYRAGPAAVSRVVAGEYLRASRLLAGEPGEVASGILGGLGFPVERGGLSVPWVVDRRGVVMLPLGWRMGVDVFLRLSAADESSPELRLANQMLLSGSVYLSDARLRALASAASRLAIESRVSEAASLESEAVERYARHLAALAEGGLPFIPEALPQCIKNVFAKAVGGERLGWLELYLALVFLARIRAGPDAVEELLTPSLGERVARLLARVYSQAPPADHQLPPCEVLAASGVCRCRGSLLSEYRRSVRSLLGLPDRGAGRR”, “failed”.
As for “MPLRSAGSGKASRDAVHHPLFARSYARISVTAETRLGMGGVRDRLLAGLSGRVIEIGAGNGLNFAHYPGAVSEVVAIEPERLLRQLAVEAALRCDVPVDVVPGAAEALPVKSEAFDAAVVSLVLCSVRDVSRALGELRRVLRPGGTLRFFEHGAGGGRAMAATQRALDRTVWPRLNGGCHLTRDAVSAVREAGFELGPYRRMLLPEKGPRLPTSYCVLGTAWRPGSAD”, the protein production entry is “failed”.
As for “MPLTIRPARFEELPAVQAIERLSARRFVGWIDALADDDPSPLERLAERSASGGLLVADVETGEGPKAAGFVMFRPMEDSLYIEQIDVAPAFERRRIGATLINAVADRAVALGLSRLTLSTFREIPWNAPYYRRLGFVDLDDEA”, the entry is “failed”; as for “MPLTPGTLLAGRYELLALLGEGGSAQVYRAQDGLLGREVALKVMHDYLPESDRSRFLREVRTLARLTHPGVVPVLDLGQEPEAGRPFFTMPLLTGGPITRLGPLEDAPGPLARFLTAAAFASRALHHVHSHGIVHRDLTPGNVLLDDTGLPRIMDFGLVALSEQTRHLTRSGVTLGTPAYMAPEQAKGGGVDARSDLYALGAVLYRVACGSPPFVGDSDQSVLYQHVYEPVPDPRDLNPAVPDAVARVLLWLLAKRADRRPQSGAALAHLWALARRDLWTTHARGQYRGGRARTGEHPDGPARVSDMQELWSVALPGEVTWPAAVVGEGDLVAVGTRGGQLVLTHTSGRPFATYAARDEVTAPATLIGGHVLYGAWDGTLRRVELQSGSEVWRHQARAEFTGAPTVWGGRLLAPSRDGHLHALSLRTGELAWAYRAGGSLAASPLVWAGAALQCDETGWLHALDARSGTPLWKVEVGTVHATPALLPGPPGTATLVIATWEGEVHAIGLEVQNGRAALAGEDAIRWTYDVEDEVWASPALTALDLPPDSGAAPDASAAPGGVVVVAGWGGKVRGLRLADGEDLWERTLDGRVTASPVISAGLVFLATEGGELLALDVRNGEVRWTCRERSGVQATPLAASGTLYVAFMDGTLRAYRNAHPEWRSEQEG”, “failed”; as for “MPLVHRSALPALCLSLILPWTFSVQAADPAPETKTPEEQPAQRQPLPERSQKDAAALERQLPALEQQQLQAGGDTFLALWKPANTSDPKGVVIILPGAGETADWPQAIAPLRNKLPDTEWASLSLTLPDMLSEAAQPRVVEAAPVPTDKANTAKDASTEAKPIEQVAGGEADVADRVVAESTEEQIKADAERIFTRVDAALAFAEQQNARSIVLLGHGTGAYWAARYLSEKQPAQVQKLVMVAAQSPANGKPQLAEITPTLKLATADFFYVDKPLAQKAALERLQASKRLKHSNFSQIPLKALPGNNTAQQEQLFRRVRGWLNPQNTDS”, “not failed”.
Consider “MPMGSLQPLATLYLLGMLVASCLGRLSWYDPDFQARLTRSNSKCQGQLEVYLKDGWHMVCSQSWGRSSKQWEDPSQASKVCQRLNCGVPLSLGPFLVTYTPQSSIICYGQLGSFSNCSHSRNDMCHSLGLTCLEPQKTTPPTTRPPPTTTPEPTAPPRLQLVAQSGGQHCAGVVEFYSGSLGGTISYEAQDKTQDLENFLCNNLQCGSFLKHLPETEAGRAQDPGEPREHQPLPIQWKIQNSSCTSLEHCFRKIKPQKSGRVLALLCSGFQPKVQSRLVGGSSICEGTVEVRQGAQWAALCDSSSARSSLRWEEVCREQQCGSVNSYRVLDAGDPTSRGLFCPHQKLSQCHELWERNSYCKKVFVTCQDPNPAGLAAGTVASIILALVLLVVLLVVCGPLAYKKLVKKFRQKKQRQWIGPTGMNQNMSFHRNHTATVRSHAENPTASHVDNEYSQPPRNSRLSAYPALEGVLHRSSMQPDNSSDSDYDLHGAQRL”, for which the protein production result was “failed”.
As for “MPMNISNTKERILAVAEALIQKDGYNAFSFKDIATAINIKTASIHYHFPSKEDLGVAVISWHTDKIAAVLSDISNNSSLSAKEKIQKFFDAILTLTYNSENKMCLGGMFASDFQSLPVSIQNQAKKFFELIIEWLKGVLETNGYDNESSLSLAKQIISLVEGGLLLARLYGDETFLEGVRHFIDQTIK”, the entry is “not failed”; as for “MPMPMACWCRRSRCRWMAPADRSDRKPEGDAVTLKRWLSGGVLMVASLVATTHAAELPAGMQQFDVQMERVRKQFDVPGIAVAIVKDGQVVLERGYGVRETGKPAPVQADTLFAIASNTKAFTAASLSILADEGKLSLEDKVIDHLPWFRMSDPYVGGEMRIRDLLAHRSGLSLGAGDLLFWPTTSYTTEEVVQRLAKVPLKGGFRDRYAYDNILYAVAQKVIEQVSGQSYEAFLQQRIFAPVGMRGTRFNADHLQAGDHAAVGHAKYDFTELRTVAPLTWSNNSGAGGIYSSAHDMALWMNVQLAGGILPDGKPLFSAKRQHEMWSMITPIPIGEVQLPEFAAARPNFAGYGEGWSLSDYRGHRMVWHTGGWPGMVSRLTLLPDQKLGVVVLTNQEVGAAFNAVTFQVLDAFLRVPPTDWTAAYAKLVEKADSDADASWKKHQDARAARSTPSLPLRSYAATYRDPWYGDVVIVQDGKRLRLQFAKTAQLVGTLEHWQHDSFIVRWDDRSLNADAFVNFLLTPDGAVREMRMEPISPLTDFSFDFQDLVLTPVPTETAAGK”, “failed”; as for “MPMPSVRHDEHRPLSPAATLIGPARALEAVLAPGPGPGRPPGLPRPAPGTRRAMKWQQVQEGPSAVYVVVLDQGEDAVAELTAFARERSLGASQVTAVGAFSQAVVGWFDRQAKDYRHIPVREQCEVLSLIGDIAVADDGPTPHLHAVLGLSDGSTRGGHLLSGRVWPTLEVVVRDSPAELAKIHRPDIGLALIDPG”, “failed”.
As for “MPMWLQALMWGTLAGGALVLGAGIAWMWKVPPKIVSTVMAFGAGVLISALAFELVDEAVEGGGLLPTVLGFLLGALIFVGSNALLARAGAKHRKRSGGSQPSEKDSPGSGTAIAVGALIDGIPESVVLGVGLLAGGAVSPAMLAAVLISNVPEGLSSTAGMKKAGRSPAYVFGTWIGIAVFSGLAALLGYTALENAPETVIAFITAIAAGGILAMLADTMIPEAFEEHHNLTGLTAAVGFLSAFTIHHVGG”, the entry is “failed”; as for “MPMYQETSEPSLQALESRQDDILKRLYELKAAVDGLSKMIHTPDADLDVTNILQADEPTTLATNTLDLNSVLGKDYGALKDIVINANPASPPLSLLVLHRLLCERYRVLSTVHTHSSVKNVPENLVKCFGEQARKQSRHEYQLGFTLIWKNVPKTQMKFSVQTMCPIEGEGNIARFLFSLFGQKHNAVTLTLIDSWVDIAMFQLREGSSKEKAAVFRSMNSALGRSPWLVGNELTVADVVLWSVLQQTGGSSGAAPTNVQRWLKSCENLAPFSTALQLLK”, “failed”; as for “MPNFSKNEEVLFSAVNEIFEEKIPFNKIIGLKVRFISPEQVKLSFEMRDELIGNAIRRMLYGGVISSAIDMTAGLAAFMGFQEKMSGKPMEEKLAMIGRLSTMSLHVEYLRPGLGREFVCTGYNVRTGNKVAVIRTELMNDQDELIAVGSVSYILV”, “not failed”.

The record behind these values is a protein production outcome set (Wang et al. 2014).
